Data on six molecules can be found in US20250215072A1 (published 2025).

The chains are these.
B1: Ab11 (antibody, IgG4, V domains shown)
VH: EVQLLESGGGLVQPGGSLRLSCAASGFTFRNYAMSWVRQAPGKGLEWVSSISGSGGATYYADSVKGRFTISRDNSKNTLYLQMNSLRAEDTAVYYCARVSSGHWDFDYWGQGTLVTVSS
VL: DIQLTQSPSSLSASVGDRVTITCRASQSISSYLNWYQQKPGKAPKLLIYAASNLQSGVPSRFSGSGSGTDFTLTISSLQPEDFATYYCQQTYTVPLTFGGGTKVEIK
B2: Ab12 (antibody, IgG4, V domains shown)
VH: B1 VH with E1Q, L5V, L11V, G16R, R30S, N31D, S35V, S50A, G56F, A57T
VL: B1 VL
B3: Ab19 (antibody, IgG4, V domains shown)
VH: QVQLVESGGGVVQPGRSLRLSCAASGFTFSSFAMTWVRQAPGKGLEWVSAISGSGAATYFADSVKGRFTISRDNSKNTLYLQMNSLRAEDTAVYYCARVSSGHWDFDEWGQGTLVTVSS
VL: B1 VL
B4: Ab26 (antibody, IgG4, V domains shown)
VH: EVQLVESGGGLVQPGGSLRLSCAASGFTFSSFSMDWVRQAPGKGLEWVSYISPDASTIYYADSVKGRFTISRDNAKNTLYLQMNSLRAEDTAVYYCARGVLDYGDMLDPWGQGTLVTVSS
VL: DIQMTQSPSSLSASVGDRVTITCQASQDITNYLNWYQQKPGKAPKLLIYDASNLETGVPSRFSGSGSGTDFTFTISSLQPEDIATYYCQQADNHPPWTFGGGTKVEIK
B5: Ab29 (antibody, IgG4, V domains shown)
VH: B4 VH with G16R, S33A, D35N, D62G, T78S, A97V, G99A
VL: B4 VL
B6: Ab33 (antibody, IgG4, V domains shown)
VH: B4 VH with D35N, D54S, S56D, R98H
VL: B4 VL

Numbering of substitutions follows the chain as printed.

hGARP-proTGFβ1 presented on cells, sequence (P01137 30-390 limits assumed, chain 1 of 2): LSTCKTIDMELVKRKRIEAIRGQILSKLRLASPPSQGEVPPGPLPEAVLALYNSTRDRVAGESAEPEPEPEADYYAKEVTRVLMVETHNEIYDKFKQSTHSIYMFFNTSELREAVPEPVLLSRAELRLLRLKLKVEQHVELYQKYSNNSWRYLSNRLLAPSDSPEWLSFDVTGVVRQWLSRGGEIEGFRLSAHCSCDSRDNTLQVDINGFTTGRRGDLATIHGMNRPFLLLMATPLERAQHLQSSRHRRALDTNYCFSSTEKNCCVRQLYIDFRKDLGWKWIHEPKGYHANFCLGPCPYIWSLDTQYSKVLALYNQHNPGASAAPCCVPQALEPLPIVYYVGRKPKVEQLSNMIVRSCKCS
hGARP-proTGFβ1 presented on cells, sequence (Q14392 20-662 limits assumed, chain 2 of 2): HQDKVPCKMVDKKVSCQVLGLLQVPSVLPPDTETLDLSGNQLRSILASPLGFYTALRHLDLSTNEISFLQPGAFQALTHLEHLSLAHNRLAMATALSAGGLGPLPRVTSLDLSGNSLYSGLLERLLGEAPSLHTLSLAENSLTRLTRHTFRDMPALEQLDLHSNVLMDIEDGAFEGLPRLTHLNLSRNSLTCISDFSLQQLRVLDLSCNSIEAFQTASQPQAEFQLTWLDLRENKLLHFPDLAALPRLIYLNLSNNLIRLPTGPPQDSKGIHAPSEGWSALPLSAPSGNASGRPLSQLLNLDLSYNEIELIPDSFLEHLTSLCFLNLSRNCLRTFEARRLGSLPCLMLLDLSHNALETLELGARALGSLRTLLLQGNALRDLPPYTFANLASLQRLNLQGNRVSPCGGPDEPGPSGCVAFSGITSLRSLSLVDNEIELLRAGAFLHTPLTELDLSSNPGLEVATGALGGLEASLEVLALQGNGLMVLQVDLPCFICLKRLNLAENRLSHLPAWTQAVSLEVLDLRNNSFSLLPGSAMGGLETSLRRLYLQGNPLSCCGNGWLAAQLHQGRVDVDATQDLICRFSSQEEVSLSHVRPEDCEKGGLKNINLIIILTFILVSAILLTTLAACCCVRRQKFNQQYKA
T2 sequence (P01137 30-390, chain 1 of 2): as the sequence (P01137 30-390 limits assumed, chain 1 of 2) above
T2 sequence (Q14392 20-627, chain 2 of 2): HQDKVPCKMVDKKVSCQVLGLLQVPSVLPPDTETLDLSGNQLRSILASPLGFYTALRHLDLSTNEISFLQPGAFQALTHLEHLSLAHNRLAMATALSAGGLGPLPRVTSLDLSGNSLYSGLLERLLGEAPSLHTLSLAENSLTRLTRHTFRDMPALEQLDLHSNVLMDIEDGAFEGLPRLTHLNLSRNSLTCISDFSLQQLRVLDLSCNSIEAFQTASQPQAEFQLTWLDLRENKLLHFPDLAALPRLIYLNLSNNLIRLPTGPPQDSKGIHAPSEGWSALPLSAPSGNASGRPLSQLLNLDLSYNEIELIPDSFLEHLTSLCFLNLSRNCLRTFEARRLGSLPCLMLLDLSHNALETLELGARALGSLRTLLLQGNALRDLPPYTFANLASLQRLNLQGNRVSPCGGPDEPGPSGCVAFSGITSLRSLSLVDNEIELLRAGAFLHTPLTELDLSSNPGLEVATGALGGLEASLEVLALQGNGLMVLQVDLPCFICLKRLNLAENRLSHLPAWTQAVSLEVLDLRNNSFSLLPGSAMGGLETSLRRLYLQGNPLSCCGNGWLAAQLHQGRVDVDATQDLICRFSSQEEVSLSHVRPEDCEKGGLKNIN

In the first assay the target is T1, human LRRC33-proTGFβ1 complex (human, UniProt P01137 30-390; Q86YC3 19-650).
T1 construct: also called hLRRC33-proTGFβ1; hLRRC33
T1 sequence (P01137 30-390 limits assumed, chain 1 of 2): as the sequence (P01137 30-390 limits assumed, chain 1 of 2) above
T1 sequence (Q86YC3 other isoform, or with tags, fused parts or gaps limits assumed, chain 2 of 2): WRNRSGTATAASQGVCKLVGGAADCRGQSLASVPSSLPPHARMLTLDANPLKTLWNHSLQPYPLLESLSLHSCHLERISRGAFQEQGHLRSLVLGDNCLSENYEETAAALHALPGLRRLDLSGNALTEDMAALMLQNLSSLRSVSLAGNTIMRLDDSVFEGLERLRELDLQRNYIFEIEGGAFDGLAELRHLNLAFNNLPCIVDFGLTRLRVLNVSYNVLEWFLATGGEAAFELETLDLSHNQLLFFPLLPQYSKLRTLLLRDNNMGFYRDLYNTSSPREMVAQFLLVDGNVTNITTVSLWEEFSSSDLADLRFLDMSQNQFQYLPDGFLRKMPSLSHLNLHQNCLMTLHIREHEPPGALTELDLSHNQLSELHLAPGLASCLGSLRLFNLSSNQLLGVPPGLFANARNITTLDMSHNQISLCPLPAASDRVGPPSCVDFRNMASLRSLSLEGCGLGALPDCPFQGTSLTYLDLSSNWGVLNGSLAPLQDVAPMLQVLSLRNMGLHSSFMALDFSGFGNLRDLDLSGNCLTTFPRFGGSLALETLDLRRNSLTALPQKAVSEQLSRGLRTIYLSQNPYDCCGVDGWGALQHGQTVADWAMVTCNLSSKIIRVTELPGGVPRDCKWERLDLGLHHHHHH
In words: MSD-SET, hIgG4. Here is the method: (§1) MSD-SET assays were performed to measure affinities of the antibodies at equilibrium. Briefly, each test antibody was diluted 3-5 fold and samples were mixed with biotinylated antigen in a 48-well dish. The SET samples were equilibrated for 20-24 hours at room temperature. Meanwhile, a capture plate was coated with IgG (20 nM) and incubated overnight at 4° C. or 30 minutes at room temperature, followed by a blocking step with 5% BSA. After the capture plate was washed three times, SET samples were added and incubated for 150 seconds. The plate was washed once to remove unbound complexes. 250 ng/ml SA-Sulfotag was added then washed 3 times. 2× Read Buffer was added, and signals from the labeled bound complexes were read with the use of QuickPlex™ SQ 120 instrument.
B1 had a Kd of 6.3 nM.
Consider B2, for which binding was put at a Kd of 3.2 nM.
The same measure, in the same setting: under B3 stands 5.7 nM.
Regarding B4, the equilibrium dissociation constant (Kd) is 0.13 nM.
Still for that read-out and setting: under B5 stands 0.043 nM.
On the same count and under the same terms, next, B6: 0.046 nM.

Another assay has as its target T2, human GARP-proTGFβ1 complex (human, UniProt P01137 30-390; Q14392 20-627).
T2 construct: also called hGARP-proTGFβ1; hGARP
In words: MSD-SET, hIgG4. Here is the method: as §1
In the case of B1, the Kd is 3 nM.
Same read-out and setting: next, B2: 1.7 nM; B3: 3.8 nM; B4: 0.014 nM.
The molecule B5 yielded a Kd of 0.0055 nM.
The same measure, in the same setting: under B6 stands 0.0078 nM.

Another assay deals with T1, human LRRC33-proTGFβ1 complex. Briefly: BLI (Octet). As to the method:
(§2) The affinity of anti-TGFβ1 antibodies was measured by Octet@ assay on human proTGFβ1 cells, while activity was measured by CAGA12 reporter cells testing human proTGFβ1 inhibition.
The molecule B1 came in with a Kd of 0.555 nM.
B2 gave a dissociation constant Kd of 0.775 nM.
On the same count and under the same terms, next, B3: 0.692 nM; B4: 0.36 nM.
Still for that read-out and setting: next, B5: 0.302 nM.
Take B6: the Kd came out at 0.339 nM.

The target in another assay is T2, human GARP-proTGFβ1 complex. Briefly: BLI (Octet). Here is the method: as §2
(In general: BLI is a label-free optical method that tracks binding on a fibre tip over time.)
As for B1, the affinity, expressed as Kd, was 0.842 nM.
Consider B2, for which the affinity, expressed as Kd, was 7.01 nM.
B3 registered an equilibrium dissociation constant (Kd) of 11.2 nM.
In the case of B4, the equilibrium dissociation constant (Kd) was 0.625 nM.
On the same count and under the same terms, under B5 stands 0.307 nM; under B6, 0.265 nM.

The target in a further assay is hLTBP1-proTGFβ1 as produced in the cell-based activation assay (human, UniProt P01137 30-390; Q14766 347-1721). Briefly: cell-based or functional assay.
hLTBP1-proTGFβ1 as produced in the cell-based activation assay, sequence (P01137 30-390 limits assumed, chain 1 of 2): as the sequence (P01137 30-390 limits assumed, chain 1 of 2) above
hLTBP1-proTGFβ1 as produced in the cell-based activation assay, sequence (Q14766 347-1721 limits assumed, chain 2 of 2): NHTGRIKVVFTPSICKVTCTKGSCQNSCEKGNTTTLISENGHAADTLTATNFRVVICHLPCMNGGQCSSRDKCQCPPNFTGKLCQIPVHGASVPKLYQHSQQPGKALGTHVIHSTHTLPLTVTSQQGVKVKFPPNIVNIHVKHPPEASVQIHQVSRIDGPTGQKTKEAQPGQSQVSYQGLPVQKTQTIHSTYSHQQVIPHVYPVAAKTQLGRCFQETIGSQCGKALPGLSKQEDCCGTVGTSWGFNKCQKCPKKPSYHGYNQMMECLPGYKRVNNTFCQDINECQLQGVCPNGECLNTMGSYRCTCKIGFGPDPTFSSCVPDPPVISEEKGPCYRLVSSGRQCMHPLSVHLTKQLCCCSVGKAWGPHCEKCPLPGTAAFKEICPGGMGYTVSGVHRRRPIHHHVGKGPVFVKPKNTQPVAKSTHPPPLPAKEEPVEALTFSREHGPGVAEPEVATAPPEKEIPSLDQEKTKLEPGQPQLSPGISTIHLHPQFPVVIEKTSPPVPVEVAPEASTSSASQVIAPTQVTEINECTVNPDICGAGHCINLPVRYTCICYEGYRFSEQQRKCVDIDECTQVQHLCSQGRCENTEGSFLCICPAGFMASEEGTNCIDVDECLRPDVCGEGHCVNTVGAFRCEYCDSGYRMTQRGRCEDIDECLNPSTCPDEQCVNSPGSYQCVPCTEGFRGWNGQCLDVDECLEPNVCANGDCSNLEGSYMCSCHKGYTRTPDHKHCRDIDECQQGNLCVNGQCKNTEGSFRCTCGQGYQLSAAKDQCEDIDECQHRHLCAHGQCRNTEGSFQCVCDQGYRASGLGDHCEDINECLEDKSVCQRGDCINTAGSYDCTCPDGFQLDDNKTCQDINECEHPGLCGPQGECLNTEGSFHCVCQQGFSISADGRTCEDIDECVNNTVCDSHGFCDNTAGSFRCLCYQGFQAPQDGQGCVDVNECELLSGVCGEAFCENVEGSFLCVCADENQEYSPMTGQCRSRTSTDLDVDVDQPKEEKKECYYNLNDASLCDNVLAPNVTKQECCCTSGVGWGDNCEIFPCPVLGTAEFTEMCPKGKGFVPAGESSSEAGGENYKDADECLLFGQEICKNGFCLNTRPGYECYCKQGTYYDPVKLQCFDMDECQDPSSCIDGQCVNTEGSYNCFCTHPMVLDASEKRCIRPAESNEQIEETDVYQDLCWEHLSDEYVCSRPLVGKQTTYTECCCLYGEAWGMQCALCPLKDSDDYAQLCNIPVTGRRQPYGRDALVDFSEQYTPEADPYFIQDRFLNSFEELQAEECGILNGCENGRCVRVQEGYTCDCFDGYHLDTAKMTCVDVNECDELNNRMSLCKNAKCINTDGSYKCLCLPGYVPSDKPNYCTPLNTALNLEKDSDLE
In the case of B1, the “IC50, reporter cell assay” value was determined as 2.95 nM.
Still for that read-out and setting: next, B2: 3.79 nM; B3: 1.66 nM; B4: 0.713 nM.
On to B5, for which the “IC50, reporter cell assay” value was determined as 0.471 nM.
Turning to B6, the “IC50, reporter cell assay” value was 1.56 nM.

In a further assay the target is hLRRC33-proTGFβ1 presented on cells (human, UniProt P01137 30-390; Q86YC3 19-692). In words: cell-based or functional assay.
Regarding B1, the “IC50, reporter cell assay” value was found to be 1.27 nM.
On the same count and under the same terms, next, B2: 2.43 nM; B3: 0.401 nM; B4: 0.341 nM.
With B5, the “IC50, reporter cell assay” value was 0.458 nM.
For the molecule B6, the “IC50, reporter cell assay” value came to 0.738 nM.

A further assay deals with hLTBP3-proTGFβ1 as produced in the cell-based activation assay (human, UniProt P01137 30-390; Q9NS15 44-1303). In words: cell-based or functional assay.
As to B1, the “IC50, reporter cell assay” value turned out to be 1.56 nM.
On the same count and under the same terms, under B2 stands 1.55 nM; under B3, 1.6 nM.
Regarding B4, the “IC50, reporter cell assay” value came out at 0.716 nM.
On the same count and under the same terms, next, B5: 0.803 nM.
For B6, the “IC50, reporter cell assay” value amounted to 1.11 nM.

The next assay has as its target hGARP-proTGFβ1 presented on cells (human, UniProt P01137 30-390; Q14392 20-662). Briefly: cell-based or functional assay.
Turning to B1, the “IC50, reporter cell assay” value was found to be 0.79 nM.
Regarding B2, the “IC50, reporter cell assay” value came out at 1.08 nM.
In the case of B3, the “IC50, reporter cell assay” value amounted to 1.34 nM.
On the same count and under the same terms, next, B4: 0.262 nM; B5: 0.264 nM.
On the same count and under the same terms, next, B6: 0.198 nM.

A word on the Kd: it is the concentration at which binding is half-saturated. A low value points to higher affinity.
